Results reported in patent US10723771B2, “Modified microorganisms expressing SagA as anti-infective agents, probiotics and food components” (priority 2015, dated 2020).
“Also recorded” adds a separate entry of the source.

What was measured:
[1] = system: S. Typhimurium; experiment: Liquid-treatment pulsed infection assay: C. elegans treated in liquid wells, then infected with S. Typhimurium, survival scored; type: in vivo; details: for Inhibition of S. Typhimurium pathogenesis (C. elegans survival): liquid wells 2 hours before infection, protein 10-20 μg/mL, defined fragments 50 μM, digests 100 μL; for Inhibition of S. Typhimurium pathogenesis (survival) in tol-1(nr2033) animals: tol-1(nr2033) C. elegans, liquid treatment
From the text: C. elegans infection assays: For each condition, 3 plates of 30 worms each (total 90 worms) were scored, unless otherwise noted. Mean percent survival and standard deviation of the triplicate plates for a representative experiment are shown for extended data figures. Mean percent survival and statistical comparisons by log rank test after Bonferroni correction for multiple comparisons using OASIS software are shown in the figures. E. faecium refers to strain Com15 unless otherwise noted in the figure legends. Worms were handled using a Leica M60 microscope and imaged using a Leica IC80 HD camera.
Liquid-treatment pulsed infection assay: Synchronized young adult worms were transferred to 96-well plate wells containing 32% BHI media, culture supernatant, or live cultures. For protein treatments, 10-20 μg/mL of protein in PBS was included in each well. For treatment with peptidoglycan digests, 100 μL of each digest was added to each well. For treatment with defined peptidoglycan fragments, 50 μM of each fragment in a mixture of PBS and water was included in each well. MDP, GlcNAc, and MurNAc were purchased from Sigma-Aldrich. MurNAc-L-Ala was synthesized as described below in Scheme 51. After 2 hours, worms were washed and transferred to lawns of IR715 grown on BHI plates for 1 day. Then, worms were washed and transferred to lawns of OP50 grown on NGM plates (Day 0). Worms were maintained on OP50-NGM plates and survival was scored.
Treatment of culture supernatants: Proteinase K treatment: Culture supernatant or media was digested with 0.1 mg/mL of proteinase K in the presence of 1 mM CaCl2 for 2 hours at 37° C. Then, 1 mM EGTA was added, and digestions were used in the liquid-treatment pulsed infection assay.
Trichloroacetic acid precipitation: Culture supernatant or media was precipitated with TCA (final concentration of 10%) overnight at 4° C. Precipitated proteins were pelleted and rinsed 2 times in acetone, then air-dried and resuspended in BHI media before use in the liquid-treatment pulsed infection assay. 10-kDa MWCO column filtration: E. faecium culture supernatant or media was filtered through 10-kDa MWCO columns (Vivaspin GE Healthcare), and the flow-thru was used in the liquid-treatment pulsed infection assay.
5-kDa MWCO column filtration of E. coli culture supernatants: E. coli BL21-RIL(DE3) expressing SagA-His or AS-His were induced in BHI media instead of LB as described above. Portions of the culture supernatants were filtered through 5-kDa MWCO columns (Vivaspin GE Healthcare), and the unfiltered supernatants, column concentrate, and column flow-thru were used in the liquid-treatment pulsed infection assay.
Peptidoglycan Digests: 100 μg of E. coli peptidoglycan (Invivogen) was digested with 20 μg lysozyme (Sigma) and 20 μg of SagA-His or AS-His overnight in a mixture of PBS and water at 37° C. Digests were then filtered through 5-kDa MWCO columns (Vivaspin GE Healthcare), and the flow-thru was used in the liquid-treatment pulsed infection assay.

[2] = system: S. Typhimurium; experiment: Colonization and S. Typhimurium infection of mice (weight loss, fecal burden, survival); type: in vivo; details: MurNAc alone
Method: Specific pathogen-free (SPF) mice were gavaged with either a single dose of 20 mg streptomycin or a daily dose of AMNV antibiotic cocktail (4 mg ampicillin, 2 mg metronidazole, 4 mg neomycin, and 2 mg vancomycin) for 7-14 days as indicated in the figure legends. Bacterial cultures were washed and resuspended in sterile PBS at 10^9/mL for E. faecium, E. faecalis, and L. plantarum or at 10^7/mL (SPF) or 10^3/mL (GF) for S. Typhimurium. Mice were colonized by gavage with 100 uL of the indicated bacterial suspension 4 hours before infection (for streptomycin-treated mice) or 2-7 days before infection (for AMNV and GF gnotobiotic mono-colonized mice). Colonization was followed by infection with S. Typhimurium by oral gavage at the doses indicated above and in the figure legends. Weight loss was monitored from just before infection, and mice were euthanized when they reached 80% baseline weight or when they appeared hunched or moribund, whichever occurred first. Death was not used as an end-point. Colony-forming units (CFU) in the feces were determined by plating 5 serial dilutions of feces suspended in sterile PBS on selective agars: Salmonella Shigella Agar (BD 211597) for S. Typhimurium, Enterococcosel Agar (BD 212205) for E. faecium and E. facealis, and MRS Agar with 8 ug/mL chloramphenicol for L. plantarum-vector and -SagA. Resulting quantities were normalized to feces weight.

[3] = system: S. Typhimurium; experiment: Worm CFU measurements, S. Typhimurium; type: in vivo, C. elegans; details: protein-treated infected animals
Method: Worm CFU measurements: Protocol for CFU measurements was adapted from previous protocol. Briefly, 5-20 worms were rinsed in drops of S buffer, and allowed to crawl free of bacteria on a sterile plate. These worms were then mechanically lysed in PBS using microtubes and pestles (Kimble-Chase). Serial dilutions of worm homogenate were plated on Salmonella-Shigella agar (BD BBL) or Enterococcosel (BD BBL) agar plates, and plates were incubated at 37° C. overnight.

[4] = system: S. Typhimurium; experiment: Growth of S. Typhimurium in the presence of SagA; type: cell-based; details: LB media + 10 μg/ml protein
Method: (§1) Growth of E. coli and S. Typhimurium in the presence of SagA: LB media was inoculated with overnight cultures 1:100. Protein was added at 10 μg/mL and volumes were normalized across all conditions with PBS. OD600 was measured at given time points. Growth of OG1RF-sagA: BHI media was inoculated with overnight cultures 1:100. Chloramphenicol was added at 10 μg/mL as indicated. OD600 was measured at given time points.

[5] = system: E. coli BL21-RIL(DE3); experiment: Growth of E. coli in the presence of SagA; type: cell-based; details: LB media + 10 μg/ml protein
Method: as §1

[6] = system: SPI-1 type III protein secretion in S. Typhimurium; experiment: Salmonella protein secretion assay; type: cell-based; details: LB + 10 μg/ml protein
Method: Salmonella protein secretion assay: For each condition, 2 mL of LB was inoculated with overnight cultures 1:30. Protein was added to media at 10 μg/mL and volumes were normalized across all conditions with PBS. Cultures were grown for 4 hours, shaking at 37° C., the pelleted at 7000 g for 5 minutes. 1 mL of culture supernatant was precipitated with trichloro acetic acid (TCA) at a final concentration of 10% overnight at 4° C. Precipitated proteins were pelleted at 20,800 g for 30 minutes, rinsed 2 times in acetone, then air-dried. Proteins were then separated by SDS-PAGE and visualized by Coomassie staining.

[7] = system: E. coli BL21-RIL(DE3); experiment: Growth (OD600) of E. coli expressing SagA, AS or SagA-SS; type: cell-based; details: IPTG-induced expression in E. coli BL21-RIL(DE3)
Method: Bacterial growth curves: Growth of E. coli expressing SagA, AS, or SagA-SS: Cultures were grown as described for protein purification, except that OD600 was monitored at given time points using a Spectromax M2e spectrophotometer.

[8] = ANTS labeling assay of peptidoglycan digests; type: biochemical; details: purified E. coli peptidoglycan digested with lysozyme and the protein
Method: E. coli supernatants were prepared by inoculating cultures 1:50 with an overnight culture of E. coli BL21-RIL(DE3) expressing SagA-His6 or AS-His6. Cultures were grown for 2 hours, then induced with 1 mM IPTG, and grown for an additional 2 hours. Enterococcus supernatants were prepared by growing cultures overnight. Cultures were pelleted, and supernatant was filtered through 10 kDa MWCO columns (Millipore Microcon). For peptidoglycan digests, 100 μg of E. coli peptidoglycan was digested with 20 μg lysozyme and 20 μg of SagA-His or AS-His overnight in a mixture of PBS and water at 37° C. Digests were filtered through 10 kDa MWCO columns. Culture supernatants, peptidoglycan digests, and defined peptidoglycan fragments were dried by speed-vac before ANTS labeling. ANTS labeling was using established techniques. 10 μl of ANTS reaction mix was added to each tube of dried material (1:1 mixture of 0.2 M ANTS (in 3:17 acetic acid:water): 1 M NaCNBH3 (in DMSO)). Reactions were incubated overnight at 37° C. 0.5-3.5 μL of the ANTS labeled mixtures were mixed 1:1 with 40% glycerol and samples were separated by native PAGE on a hand-cast 37-40% Tris-glycine acrylamide gel (19:1 polyacrylamide:bisacrylamide, with a 20% acrylamide stack) at 150 V for ˜3 hours or 80 V for ˜6 hours. Empty lanes adjacent to sample lanes were loaded with samples of ANTS labeled Ala-D-γ-Glu-Lys-D-Ala-D-Ala (Sigma). […]

Molecule: CC(=O)N[C@H]1C(O)O[C@H](CO)[C@@H](O)[C@@H]1O (some centres unmarked) [GlcNAc, N-acetylglucosamine]
- Inhibition of S. Typhimurium pathogenesis (C. elegans survival) [1]: not protective; also recorded: did not inhibit S. Typhimurium pathogenesis

Molecule: CC(=O)N[C@H]1C(O)O[C@H](CO)[C@@H](O)[C@@H]1O[C@H](C)C(=O)N[C@@H](C)C(=O)N[C@H](CCC(=O)O)C(=O)O (stereo partly drawn) [MDP, MurNAc-L-Ala-D-Glu]
- Inhibition of S. Typhimurium pathogenesis (C. elegans survival) [1]: not protective; also recorded: did not inhibit S. Typhimurium pathogenesis

Molecule: CC(=O)N[C@H]1C(O)O[C@H](CO)[C@@H](O)[C@@H]1O[C@H](C)C(=O)O (some centres unmarked) [MurNAc]
- Inhibition of S. Typhimurium pathogenesis (C. elegans survival) [1]: can inhibit S. Typhimurium pathogenesis; also recorded: sufficient to inhibit S. Typhimurium pathogenesis
- Inhibition of S. Typhimurium pathogenesis (survival) in tol-1(nr2033) animals [1]: do not inhibit S. Typhimurium pathogenesis; also recorded: not protective
- Protection of antibiotic-treatment mice from S. Typhimurium pathogenesis [2]: insufficient to protect antibiotic-treatment mice from S. Typhimurium pathogenesis

Molecule: N-acetylmuramic acid-L-alanine [MurNAc-L-Ala]
- Inhibition of S. Typhimurium pathogenesis (C. elegans survival) [1]: can inhibit S. Typhimurium pathogenesis; also recorded: sufficient to inhibit S. Typhimurium pathogenesis
- Inhibition of S. Typhimurium pathogenesis (survival) in tol-1(nr2033) animals [1]: not protective
- Inhibition of S. Typhimurium pathogenesis (survival) in tol-1(nr2033) animals ([1]; listed as MurNAc-Ala): do not inhibit S. Typhimurium pathogenesis

B1: SagA: E. faecium secreted antigen A, NlpC/p60 peptidoglycan hydrolase, SEQ ID NO:1, purified His6-tagged (protein, listed as Enterococcus faecium)
chain: MKKSLISAVMVCSMTLTAVASPIAAAADDFDSQIQQQDQKIADLKNQQADAQSQIDALESQVSEINTQAQDLLAKQDTLRQESAQLVKDIADLQERIEKREDTIQKQAREAQVSNTSSNYIDAVLNADSLADAIGRVQAMTTMVKANNDLMEQQKQDKKAVEDKKAENDAKLKELAENQAALESQKGDLLSKQADLNVLKTSLAAEQATAEDKKADLNRQKAEAEAEQARIREQQRLAEQARQQAAQEKAEKEAREQAEAEAQATQASSTAQSSASEESSAAQSSTTEESSSAAQSSTTEESTTAPESSTTEESTTAPESSTTEESTTVPESSTTEESTTVPESSTTEESTTVPESSTTEESTTVPETSTEESTTPAPTTPSTDQSVDPGNSTGSNATNNTTNTTPTPTPSGSVNGAAIVAEAYKYIGTPYVWGGKDPSGFDCSGFTRYVYLQVTGRDIGGWTVPQESAGTKISVSQAKAGDLLFWGSPGGTYHVAIALGGGQYIHAPQPGESVKVGSVQWFAPDFAVSM
modifications: His6 tag
- Inhibition of S. Typhimurium pathogenesis (C. elegans survival) [1]: inhibits S. Typhimurium pathogenesis
- Inhibition of S. Typhimurium pathogenesis (C. elegans survival) ([1]; listed as SagA-His6): sufficient to inhibit S. Typhimurium pathogenesis
- S. Typhimurium colonization of C. elegans (imaging and CFU) [3]: does not affect S. Typhimurium colonization of C. elegans
- Effect on growth rate of S. Typhimurium in culture [4]: no effect on the growth rate of S. Typhimurium
- Effect on growth rate of E. coli in culture [5]: no effect on the growth rate of E. coli
- Effect on secretion of S. Typhimurium type III protein effectors (SPI-1) in culture [6]: does not affect SPI-1 secretion in culture
- Effect on secretion of S. Typhimurium type III protein effectors (SPI-1) in culture ([6]; listed as recombinant SagA): no effect
- E. coli cell lysis (culture optical density) on induced expression [7]: decrease in culture optical density
- Peptidoglycan cleavage product (ANTS visualization) [8]: yielded a unique peptidoglycan cleavage product with similar mobility to MurNAc-L-Ala
